Drawing on PMC1874613, this text covers binding result, binding signal and Kd for nine molecules.

In data set [1] the target is T1, C-SBP2 (human, UniProt Q96T21 515-854).
T1 sequence: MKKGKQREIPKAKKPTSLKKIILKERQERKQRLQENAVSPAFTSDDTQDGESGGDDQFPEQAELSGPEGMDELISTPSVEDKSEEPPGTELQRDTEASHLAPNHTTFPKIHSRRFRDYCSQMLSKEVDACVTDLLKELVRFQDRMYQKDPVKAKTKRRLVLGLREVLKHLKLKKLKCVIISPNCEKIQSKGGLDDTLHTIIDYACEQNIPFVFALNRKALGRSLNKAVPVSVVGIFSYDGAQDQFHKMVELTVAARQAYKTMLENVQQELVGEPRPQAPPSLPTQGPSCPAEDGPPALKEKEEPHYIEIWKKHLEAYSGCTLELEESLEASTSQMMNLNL
The experiment in a line: EMSA.

The target of data set [2] is T2, Snu13p (yeast, UniProt P39990 1-126).
T2 sequence: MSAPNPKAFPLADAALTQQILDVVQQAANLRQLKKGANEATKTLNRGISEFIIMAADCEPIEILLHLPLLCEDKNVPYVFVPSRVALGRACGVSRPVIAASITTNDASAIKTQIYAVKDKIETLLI
In words: EMSA. On the technique in general: Mobility shift assays separate free from complexed probe on a gel.

Data set [3] has as its target T1, C-SBP2. In words: EMSA. This is another data set of the same source.
In data set [4] the target is T2, Snu13p. In words: EMSA. The source holds these as a separate data set.
Data set [5] has as its target T1, C-SBP2. The experiment in a line: EMSA. The source holds these as a separate data set.
In data set [6] the target is T2, Snu13p. In words: EMSA. This is another data set of the same source.
The target of data set [7] is T2, Snu13p. The experiment in a line: competition.
Data set [8] has as its target T1, C-SBP2. The experiment in a line: EMSA. This is another data set of the same source.

Where two headings read alike, the source gives them in different places.

B1: Se4 (structured_RNA)
RNA: GGACCUUUGUACCCCAGAUGAUAGUAAAGCGCGGCUUGAUGGGUACAAAUGGCAG
Consider B1, for which the binding result with C-SBP2 [1] was “binds”.

B2: Se5 (structured_RNA)
RNA: GGACCUUUGUACCCCAGAUGAUAGUGAGGCGCGGCUUGAUGGGUACAAAUGGCAG
Regarding B2, the binding result in the data set with C-SBP2 [1] is “binds”.

B3: Se6 (structured_RNA)
RNA: GGACCUUUGUACCCCAGAUGAUAGUAAGGCGCGGCUUGAUGGGUACAAAUGGCAG
Consider B3, for which the binding result with C-SBP2 [1] was “binds”.

B4: Se3 (structured_RNA)
RNA: GGACCUUUGUACCCCAGAUGAUGCUUUAUCAGGCGGAUGGGUACAAAUGGCAG
With B4, the binding result with C-SBP2 [1] is listed as “binds”.

B5: Se1 (G-C)5 to (G.G)5 (structured_RNA)
RNA: GGACCUUUGUACCCCAGAUGAUGGCUUCACUGGUUGAUGGGUACAAAUGGCAG
Regarding B5, in the data set with Snu13p [2], the binding signal was ~20 fold lower affinity than Se1.

B6: Se1 (structured_RNA)
RNA: GGACCUUUGUACCCCAGAUGAUGGCUUCACUGCUUGAUGGGUACAAAUGGCAG
One may read the Kd as the concentration at which binding is half-saturated. Higher therefore signals weaker binding. Regarding B6, the Kd in the data set with C-SBP2 [3] amounted to 0.5 µM; in the data set with Snu13p [4] it was 0.035 µM.

B7: Se1:Ins (structured_RNA)
RNA: GGACCUUUGUACCCCAGAUGAUGGGCCUUCACUGGCCUUGAUGGGUACAAAUGGCAG
For B7, the Kd with C-SBP2 [5] was found to be 0.3 µM; with Snu13p [6], 0.025 µM.

B8: Se1:Ins + loop (structured_RNA)
RNA: GGACCUUUGUACCCCAGUUUAUGAUGGAUCUUCACUGAUCUUGAUCCCCUGGGUACAAAUGGCAG
As for B8, the binding result with Snu13p [7] is reported as “binds”. Moreover, the binding signal with C-SBP2 [8] is 4 fold higher affinity than Se1.

B9: Se2 (structured_RNA)
RNA: GGACCUUUGUACCCCAGAUGACGGCUCAUUUCGUGCUUGAUGGGUACAAAUGGCAG
For B9, the binding result in the data set with C-SBP2 [1] is “binds”.
